Source: patent US20100015126A1, “Methods of Binding of Cross-Beta Structures By Chaperones” (priority 2006, published 2010)

How the values were obtained:
[1] = Transmission electron microscopy (TEM); type: physicochemical; details: for TEM: 2.5 mg/ml peptide stocks; for Appearance on TEM images: magnification 10K
Description: Transmission Electron Microscopy (TEM)
TEM images were collected using a Jeol 1200 EX transmission electron microscope (Jeol Ltd., Tokyo, Japan) at an excitation voltage of 80 kV. For each sample, the formvar and carbon-coated side of a 100-mesh copper or nickel grid was positioned on a 5 μl drop of protein solution for 5 minutes. Afterwards, it was positioned on a 100 μl drop of PBS for 2 minutes, followed by three 2-minute incubations with a 100 μl drop of distilled water. The grids were then stained for 2 minutes with a 100 μl drop of 2% (m/v) methylcellulose with 0.4% uranyl acetate pH 4. Excess fluid was removed by streaking the side of the grids over filter paper, and the grids were subsequently dried under a lamp. Samples were analysed at a magnification of 10K.

[2] = molecular target: T1, recombinant human HSP90beta (Homo sapiens, UniProt P08238); assay: ELISA: binding of HSP90 to immobilized (misfolded) protein ligands; details: 5 mM DTT in binding buffer
T1 construct: purchased Dr. S. Rüdiger, Cellular Protein Chemistry, Utrecht University
Description: Recombinant human HSP90beta was bought from Dr. S. Rüdiger (Cellular Protein Chemistry, Department of Chemistry, Faculty of Science, Utrecht University). HSP90beta eluted from an anion exchange column was supplied in 35 mM Bis-Tris/25mM Tris, 5 mM DTT, approximately 385 mM NaCl, approximately pH 9.0. The HSP90beta concentration was 5.0 μM (450 μg/ml with a MW of 90.000 Da; extinction coefficient of 53740 l/(mol*cm)). The supplied frozen stock is kept at −80° C. Before use, the stock is quickly thawed almost completely in a 37° C. water bath, and kept at wet ice. Before use, the HSP90beta solution is centrifuged for 5 minutes at 16,000*g at 4° C. During dilution of HSP90beta solution, 5 mM DTT should be incorporated in the dilution buffer, to keep free Cys residues. Thawed HSP90beta was aliquoted and snap frozen in liquid nitrogen before re-storage at −80° C.
Binding of chaperones to immobilized (misfolded) protein ligands was determined using an enzyme linked immuno sorbent assay (ELISA) approach. For this purpose 50 μl/well of potential ligands at indicated concentrations or coat buffer only for control and background measurement purposes, were coated overnight at 4° C. or coated for 1 h at room temperature, with motion, in 50 mM NaHCO3 pH 9.6 (coat buffer). In general, ligands were coated at 5 μg/ml, unless stated otherwise. For example, BiP binding peptides 6BB# and oxLDL were coated at 50 μg/ml. Native haemoglobin (Sigma-Aldrich, H7379), albumin, IgIV Gammagard and ovalbumin controls were prepared from lyophilized stocks. The controls were prepared by dissolving lyophilized proteins at 1 mg/ml in PBS upon resuspending by pipetting, followed by a 30 minutes period at the roller device, at room temperature. The protein solutions were centrifuged for 10 minutes at 16,000*g and diluted in coat buffer. After coating the plates were washed at least three times with 50 mM Tris-HCl pH 7.3, 150 mM NaCl, 0.1% v/v Tween20, and blocked with Blocking reagent (Roche Diagnostics, Almere, The Netherlands; 11112589001), for 1 h at room temperature, with motion. Plates were washed three times and incubated in triplicate with indicated chaperone dilution series, at 50 μl/well, for 1 h at room temperature, with constant motion. For HSP90, 5 mM DTT is incorporated in the binding buffer (PBS/0.1% Tween20) to avoid unwanted disulfide bond formation of the HSP90. Plates were washed three times and incubated with anti-FLAG antibody (mouse antibody, M2, peroxidase conjugate; Sigma, A-8592) for BiP-FLAG-His, anti-His-tag antibody (Mouse Monoclonal Antibody, Cat. No. 70796, Novagen [0.2 mg/ml]) for HSP60, a 1:1 mix of 500-fold diluted anti-HSP90beta antibodies (Stressgen, SPA-643 [mouse monoclonal IgM], SPA-646 [rabbit polyclonal]) for HSP90 and an anti-DnaK antibody (Stressgen, 023SPA-880D [mouse monoclonal antibody]) for DnaK. After four wash cycles, secondary antibodies were added to the wells when required, 50 μl/well, for 45′ at room temperature, with motion. RAMPO and SWARPO were used at 3000 times dilution. […] In a second experiment with more immobilized misfolded proteins and controls, the detection of bound HSP90 with the mix of two anti-HSP90 antibodies was achieved by mixing 1:1500 SWARPO with 1:3000 RAMPO. After 5 washes with wash buffer followed by two washes with PBS, binding of antibodies was assessed. […] Plates were read at 450 nm. Triplicates were averaged and standard deviations calculated. […]

[3] = molecular target: T2, human BiP (Homo sapiens, UniProt P11021); assay: ELISA: inhibition of BiP binding to crossbeta structure with tPA; details: threefold diluted supernatant; 10 mM ε-amino caproic acid; no competitor
T2 construct: The human BiP gene except the signal peptide encoding region was obtained from Geneart (Germany); linker […]; made in house; host or cells: HEK 293E cells, transient transfection, PABC674 vector; secreted into the medium
Text: The threefold diluted cell supernatants were applied to the ELISA plate in duplicates and BiP binding was subsequently measured as described above. Coat efficiency was checked with specific anti-AGE antibody, anti-albumin antibody and anti-Hb antibody.

T2 sequence (P11021 19-654): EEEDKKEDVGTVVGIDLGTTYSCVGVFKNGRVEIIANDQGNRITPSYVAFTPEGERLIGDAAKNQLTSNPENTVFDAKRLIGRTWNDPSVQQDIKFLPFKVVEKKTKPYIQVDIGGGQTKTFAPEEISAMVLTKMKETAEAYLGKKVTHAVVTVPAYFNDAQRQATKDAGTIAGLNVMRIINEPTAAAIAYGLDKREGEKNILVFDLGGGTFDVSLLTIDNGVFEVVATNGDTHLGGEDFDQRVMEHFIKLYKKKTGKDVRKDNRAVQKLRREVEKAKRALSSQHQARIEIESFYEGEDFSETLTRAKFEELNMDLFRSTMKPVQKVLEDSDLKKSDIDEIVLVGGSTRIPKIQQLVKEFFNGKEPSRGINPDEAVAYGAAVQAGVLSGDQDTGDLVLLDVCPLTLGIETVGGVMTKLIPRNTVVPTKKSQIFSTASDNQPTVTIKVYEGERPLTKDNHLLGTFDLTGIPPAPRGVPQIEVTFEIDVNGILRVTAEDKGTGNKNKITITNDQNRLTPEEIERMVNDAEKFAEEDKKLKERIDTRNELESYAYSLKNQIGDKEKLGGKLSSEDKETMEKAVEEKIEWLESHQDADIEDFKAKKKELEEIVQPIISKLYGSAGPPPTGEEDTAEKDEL
T1 sequence (P08238 whole entry): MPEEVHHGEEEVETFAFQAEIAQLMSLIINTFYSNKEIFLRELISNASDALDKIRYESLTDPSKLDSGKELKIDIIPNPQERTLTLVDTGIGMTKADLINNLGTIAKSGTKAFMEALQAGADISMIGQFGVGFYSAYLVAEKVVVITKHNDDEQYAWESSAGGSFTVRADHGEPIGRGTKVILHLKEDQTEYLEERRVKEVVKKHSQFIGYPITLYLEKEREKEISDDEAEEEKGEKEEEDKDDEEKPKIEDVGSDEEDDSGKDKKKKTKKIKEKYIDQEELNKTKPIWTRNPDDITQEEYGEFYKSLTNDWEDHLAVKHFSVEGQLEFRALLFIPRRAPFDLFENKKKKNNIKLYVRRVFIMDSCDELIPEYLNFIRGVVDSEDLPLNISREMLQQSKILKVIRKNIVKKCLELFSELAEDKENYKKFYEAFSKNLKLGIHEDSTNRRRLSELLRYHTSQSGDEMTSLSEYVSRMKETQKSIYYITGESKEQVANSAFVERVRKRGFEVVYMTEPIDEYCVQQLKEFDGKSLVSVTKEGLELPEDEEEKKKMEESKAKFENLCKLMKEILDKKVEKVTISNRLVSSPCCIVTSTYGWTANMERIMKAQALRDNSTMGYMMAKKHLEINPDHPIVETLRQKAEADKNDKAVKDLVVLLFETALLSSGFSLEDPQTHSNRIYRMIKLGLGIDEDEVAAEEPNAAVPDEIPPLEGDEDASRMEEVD

Row | Substance | TEM [1] | Binding of concentration series of HSP90 to coated ligand [2] | Binding of BiP to coated ligand [3] | Appearance on TEM images [1]
1 | AGEYYAAL [6BB7] | Very few small | little binding | – | –
2 | BSA-AGE | – | – | binds | non-fibrillar amorphous aggregates
3 | GSNKGAIIGLM [6BB6, Human Aβ (25-35)] | Thin aggregated | has been established | – | –
4 | Hb: non-modified human haemoglobin control | – | did not bind | some binding | –
5 | HbAGE: human haemoglobin glycated with glucose-6-phosphate for 75 weeks | – | has been established | – | non-fibrillar amorphous aggregates
6 | KLVFFAE [6BB12, Human Aβ16-22] | Large dense clusters | did not bind | – | –
7 | native BSA: non-modified bovine serum albumin control | – | – | hardly | –
